# Measured values taken from patent US20170022281A1 (AbbVie / Abbott, published 2017).
# Where a chain is given by its changes, count along the chain named.
# T1: rat PRLR ECD-Fc fusion protein (rat, UniProt P05710 20-229)
# T1 construct: extracellular domain; not shown: Fc region (captured by goat anti-human Fc)
# T1 sequence (looked up): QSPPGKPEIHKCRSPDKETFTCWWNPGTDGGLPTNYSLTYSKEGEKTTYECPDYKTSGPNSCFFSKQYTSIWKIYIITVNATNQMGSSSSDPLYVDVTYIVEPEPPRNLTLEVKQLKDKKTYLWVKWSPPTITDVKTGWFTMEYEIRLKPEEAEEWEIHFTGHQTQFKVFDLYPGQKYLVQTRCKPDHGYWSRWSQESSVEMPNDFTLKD
# T2: mouse PRLR ECD-Fc fusion protein (mouse, UniProt Q08501 20-229)
# T2 construct: extracellular domain; not shown: Fc region (captured by goat anti-human Fc)
# T2 sequence (looked up): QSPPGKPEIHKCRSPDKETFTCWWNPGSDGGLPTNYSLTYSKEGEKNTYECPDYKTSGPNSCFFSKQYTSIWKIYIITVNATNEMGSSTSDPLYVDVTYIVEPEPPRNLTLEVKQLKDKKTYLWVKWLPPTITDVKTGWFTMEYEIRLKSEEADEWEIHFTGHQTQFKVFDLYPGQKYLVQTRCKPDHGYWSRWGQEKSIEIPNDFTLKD
# T3: rat PRLR on Nb2-11 rat lymphoma cells (rat, UniProt P05710 20-610)
# T3 sequence (looked up): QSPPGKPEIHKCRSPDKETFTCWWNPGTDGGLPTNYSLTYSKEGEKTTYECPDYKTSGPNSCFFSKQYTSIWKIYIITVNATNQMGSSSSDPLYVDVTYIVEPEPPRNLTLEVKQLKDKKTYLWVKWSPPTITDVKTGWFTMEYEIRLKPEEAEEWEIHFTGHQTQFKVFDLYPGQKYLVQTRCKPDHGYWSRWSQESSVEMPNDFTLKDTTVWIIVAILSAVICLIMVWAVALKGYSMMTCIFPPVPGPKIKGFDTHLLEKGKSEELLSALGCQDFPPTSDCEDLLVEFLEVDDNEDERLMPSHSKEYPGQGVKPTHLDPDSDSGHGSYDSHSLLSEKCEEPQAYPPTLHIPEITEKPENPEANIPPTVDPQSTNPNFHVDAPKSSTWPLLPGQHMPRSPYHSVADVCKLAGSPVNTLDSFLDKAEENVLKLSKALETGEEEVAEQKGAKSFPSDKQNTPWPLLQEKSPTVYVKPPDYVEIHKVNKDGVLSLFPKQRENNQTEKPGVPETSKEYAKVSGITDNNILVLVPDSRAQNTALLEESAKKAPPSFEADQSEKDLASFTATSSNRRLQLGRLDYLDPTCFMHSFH
# T4: human PRLR on cells (human, UniProt P16471 25-622)
# T4 construct: Endogenous on T47D cells, transfected in Baf3-hPRLR cells; also called hPRLR; T47D cells
# T4 sequence: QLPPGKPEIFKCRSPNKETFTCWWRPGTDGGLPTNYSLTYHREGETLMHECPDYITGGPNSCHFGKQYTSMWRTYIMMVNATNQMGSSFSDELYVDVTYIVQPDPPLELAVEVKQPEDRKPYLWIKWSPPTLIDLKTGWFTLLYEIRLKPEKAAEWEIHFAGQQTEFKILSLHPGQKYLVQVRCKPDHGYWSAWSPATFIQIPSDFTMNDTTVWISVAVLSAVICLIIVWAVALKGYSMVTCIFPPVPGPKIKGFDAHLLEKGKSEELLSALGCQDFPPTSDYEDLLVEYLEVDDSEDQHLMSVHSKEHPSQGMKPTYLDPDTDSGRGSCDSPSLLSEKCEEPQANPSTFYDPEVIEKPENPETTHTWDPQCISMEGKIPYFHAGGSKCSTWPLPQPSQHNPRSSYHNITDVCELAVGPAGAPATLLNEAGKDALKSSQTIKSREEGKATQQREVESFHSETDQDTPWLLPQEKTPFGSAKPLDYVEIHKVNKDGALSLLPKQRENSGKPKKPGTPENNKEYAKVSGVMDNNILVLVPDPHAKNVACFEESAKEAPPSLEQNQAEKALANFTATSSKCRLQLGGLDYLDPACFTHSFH
# B1: Ab5 (antibody, V domains shown)
# VH: QVQLQQPGAELVRPGTSVKLSCKASGYTFTSFWMHWVKQRPGQGLEWIGVIDPSDTYTNYNQKFKGKATLTVDTSSSTAYMQLSSLTSEDSAVYYCARGDYSNWFTYWGQGTLVTVSA
# VL: DVVMTQTPLSLPVSLGDQASISCRSSQRLVHSNGNTYLHWYLQKPGQSPKLLIYKVSNRFSGVPDRFSGSGSGTDFTLKISRVEAEDLGVYFCSQSTHVPWTFGGGTKLEIK
# notes: murine monoclonal, isotype G2a; also called murine Ab5
# B2: chAb5 (antibody, human IgG1, kappa, V domains shown)
# VH: B1 VH
# VL: DVVMTQTPLSLPVSLGDQASISCRSSQRLVHSNGNTYLHWYLQKPGQSPKLLIYKVSNRFSGVPDRFSGSGSGTDFTLKISRVEAEDLGVYFCSQSTHVPWTFGGGTKLEIKT
# notes: chimeric, murine variable and human G1/kappa constant regions
# B3: Ab7 (antibody, V domains shown)
# VH: QVQLQQPGAELVMPGTSVKLSCKASGYTFTSYWIHWVKQRPGQGLEWIGEIDPSDSYTNYNQKFKGKATLTVDRSSSTAYMQLSSLTSEDSAVYYCGRSFFTNWFAYWGQGTLVTVSA
# VL: B1 VL with R28S, S81N, W101F, G105S
# notes: murine monoclonal, isotype G1; also called murine Ab7
# B4: Ab11 (antibody, V domains shown)
# VH: EVKLVESGGGLVQPGGSLKLSCAASGFTFSDYYMFWVRQTPEKSLEWVAYISNGGGSTYYPDTVKGRFTISRDNAKNTLYLQMSRLKSEDTAMYYCSRQLFYYGSRGAMGYWGQGTSVTVSS
# VL: B1 VL with V3L, R28S, L29I, H39E, F92Y, S94F, S96G, T97S, W101F, G105S
# notes: murine monoclonal, isotype G1; also called murine Ab11
# B5: Ab13 (antibody, V domains shown)
# VH: B1 VH with T56S, Y57H, D73N, Q82H
# VL: B1 VL with L9F, R28S, G89E, V90L
# notes: murine monoclonal, isotype G2a; also called murine Ab13
# B6: Ab30 (antibody, human IgG1, kappa, V domains shown)
# VH: EVQLVQSGAEVKKPGSSVKVSCKASGYTFTSFWMHWVRQAPGQGLEWIGVIDPSDTYTNYNQKFKGRATLTVDESSSTAYMELSSLRSEDTAVYYCARGDYSNWFTYWGQGTLVTVSS
# VL: B2 VL with P12S, S14T, L15P, D17Q, Q18P, K50Q, L88V, L109V, T113R
# notes: humanized from Ab5; G1; also called Ab2 HC.1a and Ab2 LC.1a
# B7: chAb8 (antibody, human IgG1, kappa, V domains shown)
# VH: EVQLQQSGPELVKPGASVKISCKASGYTFTDYNIHWVKQSHGKSLEWIGYIYPNNDGTGYNQKFKSKATLTVDNSSSTAYMEVRSLTSEDSAVYYCARGDGNYVGDMDYWGQGTSVTVSS
# VL: DIQMTQSPASLSASVGETVTITCRASENIYSYLAWYQQKQGKPPQLLVYNAKTLAEGVPSRFSGGGSGTQFSLKINSLQPEDFGSYYCQHHYATPFTFGSGTKLEIKT
# notes: as for B2
# B8: Ab10 (antibody, V domains shown)
# VH: EVQLHQSGPELVKPGASVKISCKASGYTFTDYNMHWMKQSHGKSLEWIGYFYPYNGGTGYNQEFKNKATLTVDISSSTAYMELRRLTSEDSAVYYCARGGWGIYYAMDYWGQGTSVTVSS
# VL: DIQMTQSPASLSASVGETVTITCRASENIYSYLTWYQQKQGKSPQLLVYNAKTLAEGVPSRFSGSGSGTQFSLKINSLQPEDFGSYHCQHHSVTPLTFGAGTKLELK
# notes: murine monoclonal, isotype G2a; also called murine Ab10
# B9: LFA102 (antibody, human IgG1, kappa, V domains shown)
# VH: EVQLVESGGGLVQPGGSLRLSCAVSGFTFSSYGMSWVRQAPGKRLEWVATVSSGGTYTYYPDSVKGRFTISRDNSKNTLYLQMNSLRAEDTAMYYCARHRGNYYATYYYAMDYWGQGTLVTVSS
# VL: DIVLTQSPDSLAVSLGERATINCKASKSVSTSGYTYMHWYQQKPGQPPKLLIYLASNRESGVPDRFSGSGSGTDFTLTISPVQAEDVATYYCQHSGELPPSFGQGTKLEIKR
# notes: humanized IgG1 kappa comparator (WO 2008022295)
# B10: Ab12 (antibody, V domains shown)
# VH: DVQLQESGPGLVKPSQSLSLTCTVTGYSITSDYAWNWIRQFPGNKLEWMGYIGYSGRTSFNPSLKSRISITRDTSKNQFFLQLNSVTTEDTATYYCARGGFAMDYWGQGTSVTVSS
# VL: QIVLTQSPGIMSASPGEKVTMTCSASSSVTYMYWYQQKPRSSPKPWIYLTSNLASGVPARFSGSGSGTSYSLTISSMEAEDGATYYCQQWSSTPPLTFGGGTKLELN
# notes: murine monoclonal, isotype G2a; reported as PRLR agonist; also called murine Ab12
# B11: chAb7 (antibody, human IgG1, kappa, V domains shown)
# VH: B3 VH
# VL: B2 VL with R28S, S81N, W101F, G105S
# notes: as for B2
# B12: Ab6 (antibody, V domains shown)
# VH: QVQLQQPGAELVMPGSSVKLSCKASGYTFTTYWMHWVKQRPGQGLEWIGEIDPSDSYSNYNQKFKDKATLTVDKSSSTAYMQLSSLTSEDSAVYYCARNGGLGPAWFSYWGQGTLVTVSA
# VL: DIVMTQSQKFMSTTVGDRVSITCKASQYVGTAVAWYQQKPGQSPKLLIYSASNRYTGVPDRFTDSGSGTDFTLTISNLQSEDLADYFCQQYSSYPWTFGGGTKLEIK
# notes: murine monoclonal, isotype G1; also called murine Ab6
# Columns and labels:
# [1] = target: T1, rat PRLR ECD-Fc fusion protein; experiment: ELISA on ECD
# Method in brief: (§1)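 EC50 values derive from fitted binding curves of antibody serial dilutions (1 h) on captured PRLR. Detection used an HRP-conjugated secondary (1 h), TMB development for 3–5 min, an H₂SO₄ stop and a 450 nm read, with all steps in Tween/PBS pH 7.4 buffer.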
# [2] = target: T2, mouse PRLR ECD-Fc fusion protein; experiment: ELISA on ECD
# Method in brief: as §1
# [3] = target: T3, rat PRLR on Nb2-11 rat lymphoma cells; experiment: cell-based or functional assay
# human PRLR on cells = target: T4, human PRLR on cells; experiment: FACS T47D 10 ug/mL
# [4] = target: T3, rat PRLR on Nb2-11 rat lymphoma cells; experiment: FACS Nb2-11 20 ug/mL
# Method: Nb2-11 and Baf3-xPRLR cells were resuspended in FACS buffer (PBS+1% FBS) at 2 millions cells/mL. Cells were added to round bottom 96-well plate (100 uL/well) and treated with testing PRLR antibodies for 1 hr at 4 C. Cells were then washed with FACS buffer twice and incubated with 2nd antibody conjugated to ALEXA488 (Invitrogen) for 1 hr at 4 C. After two washes in FACS buffer, cells were resuspended in 1% formaldehyde in PBS. Cells were analyzed using LSRII flowcytometer.
Binder,EC50 [1],EC50 [2],Nb2-11 proliferation IC50 [3],FACS GeoMean-neg (human PRLR on cells),FACS GeoMean-neg [4]
B1,0.08 nM,0.098 nM,0.91 µg/mL,1610,90
B2,0.147 nM,0.12 nM,0.69 µg/mL,,
B3,0.135 nM,0.143 nM,4.42 µg/mL,2380,82
B4,0.087 nM,0.086 nM,> 30 µg/mL,2220,94
B5,0.085 nM,0.088 nM,7.56 µg/mL,1500,60
B6,0.423 nM,0.198 nM,,,
B7,0.305 nM,1.02 nM,,,
B8,0.234 nM,1.14 nM,> 30 µg/mL,2720,16
B9,0.157 nM,,0.93 µg/mL,1640,98
B10,0.116 nM,0.121 nM,,1680,17
B11,0.157 nM,0.184 nM,16.8 µg/mL,,
B12,,,> 30 µg/mL,1840,0
